Six molecules from publication PMC3268006 (Journal of Molecular Biology, 2011) can be followed below.

The target of this test is matriptase (MT-SP1), human protease domain (human, UniProt Q9Y5Y6). The test is described as follows: steady-state enzyme inhibition kinetics.

For orientation: Ki means a measure of affinity in units of concentration, obtained from inhibition or displacement. High values mean lower affinity, low ones higher affinity.

Chain of matriptase (MT-SP1), human protease domain (Q9Y5Y6 615-855): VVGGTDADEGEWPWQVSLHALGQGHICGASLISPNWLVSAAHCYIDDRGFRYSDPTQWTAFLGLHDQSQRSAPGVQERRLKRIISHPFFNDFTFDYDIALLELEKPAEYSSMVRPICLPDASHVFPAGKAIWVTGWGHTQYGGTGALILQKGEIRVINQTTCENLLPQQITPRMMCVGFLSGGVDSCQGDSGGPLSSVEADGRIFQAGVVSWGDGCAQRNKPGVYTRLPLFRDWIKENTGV

B1: Fab A11 H R100aA (Fab, V domains shown)
VH: EVQLVQSGGGLVKPGGSLRLSCAASGFTFSSYAMSWVRQAPGKGLEWVSAISGSGGSTYYADSVKGRFTISRDNSKNTLYLQMSSLRAEDTAVYYCVKDLGIAAARFVSGAFDIWGQGTMVTVSS
VL: EIVLTQSPGTLSLSPGERATLSCRASQSVSSSYLAWYQQKPGQAPRLLIYGASTRATGIPARFSGSGSGTDFTLTINSLEPEDFAVYYCQQRSNWPPGYTFGQGTKVEIT
Molecule B1 came in with a Ki of 1.5 nM.

B2: Fab A11 H R100bK (Fab, V domains shown)
VH: EVQLVQSGGGLVKPGGSLRLSCAASGFTFSSYAMSWVRQAPGKGLEWVSAISGSGGSTYYADSVKGRFTISRDNSKNTLYLQMSSLRAEDTAVYYCVKDLGIAARKFVSGAFDIWGQGTMVTVSS
VL: EIVLTQSPGTLSLSPGERATLSCRASQSVSSSYLAWYQQKPGQAPRLLIYGASTRATGIPARFSGSGSGTDFTLTINSLEPEDFAVYYCQQRSNWPPGYTFGQGTKVEIT
For B2, the affinity corresponds to a Ki of 180 nM.

B3: Fab A11 H R100bA (Fab, V domains shown)
VH: EVQLVQSGGGLVKPGGSLRLSCAASGFTFSSYAMSWVRQAPGKGLEWVSAISGSGGSTYYADSVKGRFTISRDNSKNTLYLQMSSLRAEDTAVYYCVKDLGIAARAFVSGAFDIWGQGTMVTVSS
VL: EIVLTQSPGTLSLSPGERATLSCRASQSVSSSYLAWYQQKPGQAPRLLIYGASTRATGIPARFSGSGSGTDFTLTINSLEPEDFAVYYCQQRSNWPPGYTFGQGTKVEIT
B3 showed a Ki of 180 nM.

B4: Fab S4 (Fab, V domains shown)
VH: EVQLVQSGAEVKKPGSSVKVSCKASGGTFSSYAISWVRQAGQGLEWMGGIIPIFGTANYAQKFQGRVTITADESTSTAYMELSSLRSEDTAVYYCARTFHIRRYRSGYYDKMDHWGQGTLVTVSS
VL: VLTQPPSVSGAPGQRVTISCSGSSSNIGSNYVSWYQQKPGTAPKLLIYDNNQRPSGVPDRFSGSKSGTSAVLAITGLQSEDEADYYCQSRDISQYVFGGGTKLTVL
In turn, B4 came in with a Ki of 1 nM.

B5: Fab S4 H R100bK (Fab, V domains shown)
VH: EVQLVQSGAEVKKPGSSVKVSCKASGGTFSSYAISWVRQAGQGLEWMGGIIPIFGTANYAQKFQGRVTITADESTSTAYMELSSLRSEDTAVYYCARTFHIRRYKSGYYDKMDHWGQGTLVTVSS
VL: VLTQPPSVSGAPGQRVTISCSGSSSNIGSNYVSWYQQKPGTAPKLLIYDNNQRPSGVPDRFSGSKSGTSAVLAITGLQSEDEADYYCQSRDISQYVFGGGTKLTVL
In turn, B5 showed a Ki of 110 nM.

B6: Fab S4 H R100bA (Fab, V domains shown)
VH: EVQLVQSGAEVKKPGSSVKVSCKASGGTFSSYAISWVRQAGQGLEWMGGIIPIFGTANYAQKFQGRVTITADESTSTAYMELSSLRSEDTAVYYCARTFHIRRYASGYYDKMDHWGQGTLVTVSS
VL: VLTQPPSVSGAPGQRVTISCSGSSSNIGSNYVSWYQQKPGTAPKLLIYDNNQRPSGVPDRFSGSKSGTSAVLAITGLQSEDEADYYCQSRDISQYVFGGGTKLTVL
For B6, the Ki was determined as 93 nM.
